The assay concerns the target T1, Mec1 (yeast homolog of ATR), wild type, activated in vivo by HU or MMS (yeast (endogenous in cultured yeast …, UniProt P38111 1-2368)).
T1 construct: Mec1 kinase, yeast homolog of human ATR, wild type, endogenous; purified together with Ddc2; they may stand in the supplementary file; also called ATR/Mec1; Mec1/ATR kinase; source: endogenously purified from cultured yeast cells treated with HU or MMS
Description: cryo-EM structure; Mec1-Ddc2 complex endogenously purified from yeast cells treated with HU (HU-Dimer1, HU-Dimer2) or MMS (MMS-Dimer). To be noted: both partners purified.

T1 sequence (P38111 whole entry): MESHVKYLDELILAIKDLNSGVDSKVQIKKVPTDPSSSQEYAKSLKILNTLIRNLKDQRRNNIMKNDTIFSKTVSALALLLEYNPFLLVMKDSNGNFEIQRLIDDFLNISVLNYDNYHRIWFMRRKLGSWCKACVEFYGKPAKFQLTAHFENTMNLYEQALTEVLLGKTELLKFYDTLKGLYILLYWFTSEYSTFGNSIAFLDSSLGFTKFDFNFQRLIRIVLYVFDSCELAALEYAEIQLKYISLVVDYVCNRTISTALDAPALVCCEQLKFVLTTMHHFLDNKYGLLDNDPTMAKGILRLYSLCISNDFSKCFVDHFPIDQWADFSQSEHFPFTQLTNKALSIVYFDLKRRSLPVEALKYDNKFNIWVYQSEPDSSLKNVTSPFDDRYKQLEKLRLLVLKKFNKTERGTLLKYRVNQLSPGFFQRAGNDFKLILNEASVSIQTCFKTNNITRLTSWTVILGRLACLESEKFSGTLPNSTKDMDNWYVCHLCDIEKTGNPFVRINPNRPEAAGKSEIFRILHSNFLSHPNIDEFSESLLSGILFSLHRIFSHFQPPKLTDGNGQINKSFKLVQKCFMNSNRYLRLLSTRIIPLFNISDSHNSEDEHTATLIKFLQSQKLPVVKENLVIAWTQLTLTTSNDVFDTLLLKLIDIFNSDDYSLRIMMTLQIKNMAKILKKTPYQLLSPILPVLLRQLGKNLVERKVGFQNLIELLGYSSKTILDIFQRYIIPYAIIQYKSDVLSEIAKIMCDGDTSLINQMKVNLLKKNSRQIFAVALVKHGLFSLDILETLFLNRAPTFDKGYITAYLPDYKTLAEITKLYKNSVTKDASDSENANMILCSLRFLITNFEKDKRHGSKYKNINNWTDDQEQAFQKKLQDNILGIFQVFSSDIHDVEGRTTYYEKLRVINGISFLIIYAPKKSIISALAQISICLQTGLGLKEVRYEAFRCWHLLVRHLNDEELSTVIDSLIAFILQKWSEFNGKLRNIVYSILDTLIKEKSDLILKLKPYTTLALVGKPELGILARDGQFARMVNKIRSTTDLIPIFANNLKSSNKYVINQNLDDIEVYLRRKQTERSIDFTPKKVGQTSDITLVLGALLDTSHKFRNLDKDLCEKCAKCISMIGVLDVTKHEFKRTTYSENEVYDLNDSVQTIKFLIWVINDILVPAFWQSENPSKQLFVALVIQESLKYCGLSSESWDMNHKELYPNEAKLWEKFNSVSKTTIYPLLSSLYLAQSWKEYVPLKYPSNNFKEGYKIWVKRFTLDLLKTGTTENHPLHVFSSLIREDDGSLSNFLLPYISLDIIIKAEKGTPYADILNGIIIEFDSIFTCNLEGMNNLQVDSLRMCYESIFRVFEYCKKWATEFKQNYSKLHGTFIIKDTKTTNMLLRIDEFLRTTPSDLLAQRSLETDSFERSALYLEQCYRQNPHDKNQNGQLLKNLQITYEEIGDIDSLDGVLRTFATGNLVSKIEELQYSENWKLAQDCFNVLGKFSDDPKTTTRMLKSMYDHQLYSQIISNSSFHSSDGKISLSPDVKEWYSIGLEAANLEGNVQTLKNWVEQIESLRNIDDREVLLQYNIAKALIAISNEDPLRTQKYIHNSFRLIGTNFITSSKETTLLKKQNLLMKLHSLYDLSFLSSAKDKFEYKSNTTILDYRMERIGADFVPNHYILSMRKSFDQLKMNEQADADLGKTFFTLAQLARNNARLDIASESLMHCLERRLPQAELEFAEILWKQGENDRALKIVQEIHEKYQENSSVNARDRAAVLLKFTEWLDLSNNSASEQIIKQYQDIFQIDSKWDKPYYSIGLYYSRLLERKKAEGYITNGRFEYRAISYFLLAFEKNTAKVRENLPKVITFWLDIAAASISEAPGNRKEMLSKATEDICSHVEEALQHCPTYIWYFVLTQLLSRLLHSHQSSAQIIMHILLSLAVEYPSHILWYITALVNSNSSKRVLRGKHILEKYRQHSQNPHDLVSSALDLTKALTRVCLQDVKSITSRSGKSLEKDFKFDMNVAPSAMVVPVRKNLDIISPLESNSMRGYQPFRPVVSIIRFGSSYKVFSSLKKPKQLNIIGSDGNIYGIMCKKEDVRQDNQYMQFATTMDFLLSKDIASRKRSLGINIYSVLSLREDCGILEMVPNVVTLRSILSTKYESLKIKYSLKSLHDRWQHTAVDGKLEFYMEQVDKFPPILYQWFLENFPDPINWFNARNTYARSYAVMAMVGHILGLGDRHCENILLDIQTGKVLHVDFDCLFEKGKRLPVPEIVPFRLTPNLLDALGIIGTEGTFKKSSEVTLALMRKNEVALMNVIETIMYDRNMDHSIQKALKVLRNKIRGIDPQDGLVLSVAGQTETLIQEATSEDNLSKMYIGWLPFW

B1: Ddc2 (yeast homolog of ATRIP) (natural protein, UniProt Q04377 1-747, looked up)
chain: MRRETVGEFSSDDDDDILLELGTRPPRFTQIPPSSAALQTQIPTTLEVTTTTLNNKQSKNDNQLVNQLNKAQGEASMLRDKINFLNIEREKEKNIQAVKVNELQVKHLQELAKLKQELQKLEDEKKFLQMEARGKSKREVITNVKPPSTTLSTNTNTITPDSSSVAIEAKPQSPQSKKRKISDNLLKKNMVPLNPNRIIPDETSLFLESILLHQIIGADLSTIEILNRLKLDYITEFKFKNFVIAKGAPIGKSIVSLLLRCKKTLTLDRFIDTLLEDIAVLIKEISVHPNESKLAVPFLVALMYQIVQFRPSATHNLALKDCFLFICDLIRIYHHVLKVPIHESNMNLHVEPQIFQYELIDYLIISYSFDLLEGILRVLQSHPKQTYMEFFDENILKSFEFVYKLALTISYKPMVNVIFSAVEVVNIITSIILNMDNSSDLKSLISGSWWRDCITRLYALLEKEIKSGDVYNENVDTTTLHMSKYHDFFGLIRNIGDNELGGLISKLIYTDRLQSVPRVISKEDIGMDSDKFTAPIIGYKMEKWLLKLKDEVLNIFENLLMIYGDDATIVNGEMLIHSSKFLSREQALMIERYVGQDSPNLDLRCHLIEHTLTIIYRLWKDHFKQLREEQIKQVESQLIMSLWRFLVCQTETVTANEREMRDHRHLVDSLHDLTIKDQASYYEDAFEDLPEYIEEELKMQLNKRTGRIMQVKYDEKFQEMARTILESKSFDLTTLEEADSLYISMGL
notes: Ddc2, yeast homolog of human ATRIP, endogenous; purified together with Mec1; they may stand in the supplementary file; source: endogenously purified from cultured yeast cells treated with HU or MMS
With B1, the binding result is “binds”.

Values taken from publication PMC9523049, “Structures of Mec1/ATR kinase endogenously stimulated by different genotoxins” (Cell Discovery, 2022).
